# Test system: MS2 coat protein
# Experiment: apparent KD of MS2 coat protein; designed switch direction (-1 OFF switch, 1 ON switch): 1; higher = weaker reporter binding
# Outline: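 The reported apparent KD is a per-design median over clusters, from curve fits of normalised cluster fluorescence. Protein titrations used SNAP-549-labelled MS2 coat protein, doubled from 0.7 or 1.5 nM to 3 µM, in Tris-HCl pH 7.5 buffer with KCl, MgCl2, BSA, DTT, tRNA and Tween-20, with no input, 200 uM small-molecule ligand, or an oligonucleotide input. The RNA switches were transcribed on Illumina chips by stalled E. coli RNA polymerase.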
# [1] = input ligand: microRNA oligo, concentration not stated
# [2] = Eterna round: R95, input ligand: FMN 200 uM
# [3] = Eterna round: R95, input ligand: microRNA oligo, concentration not stated
# [4] = Eterna round: R95, input ligand: none
Sequence,apparent KD of MS2 coat protein (input ligand: FMN 200 uM) [nM],apparent KD of MS2 coat protein [1] [nM],apparent KD of MS2 coat protein (input ligand: none) [nM],apparent KD of MS2 coat protein [2] [nM],apparent KD of MS2 coat protein [3] [nM],apparent KD of MS2 coat protein [4] [nM]
"AUGCCAAAUCAAGGAUAUGGAGCCUUAUUGGCUCCAGAAGGUGGGACAUGAGGAUCACCCAUGUGGCAGUGGUCUAAUGACCAC [Fiskers NG1ss - 31] (Eterna round: R96, puzzle: Same State NG 1)",59.7,146,200,,,
"GGUAAGAAUUAAGGAUAUCGAGUACAUAUGUUUAACAUGAGGAUCACCCAUGUGGGUUGCGGUAUCGAGAAGGUAAAAUAAAAG [Mat - same State NG 2 - JL mod - D65] (Eterna round: R96, puzzle: Same State NG 2)",53,29.2,36.2,,,
"GCUCGACGUAUUGUUUACAUGAGGAUCACCCAUGUAGGUGCGGAGGAUAUCUACGUGUUUCAUGUAGAGAAGGUCGUGUCGAGC [SameState NG3 #91] (Eterna round: R96, puzzle: Same State NG 3)",24.5,59.2,106,,,
UAGACAAGCUUUAUGUUCUUCCUUUUCCUACAUGAGGAUCACCCAUGUAGUCUGUCGAUUGUGAGUGUAGUUGAGAU [JR_SHM208A_Sub025] (puzzle: Sensor for hsa-mir-208a),,,,18.7,16,18.7
"GCUCGAUGAAUGUCCUACAUGAGGAUCACCCAUGUACGUGGGCAGGAUAUUUACAUGCAGAGUGUAGAGAAGGGCCCAUCGAGC [SameState NG3 #62] (Eterna round: R96, puzzle: Same State NG 3)",16.1,28.6,49.1,,,
AUUAAACAUGAGGAUCACCCAUGUCAACAAAGUCGAGGAUAUGGGCUAAUAAAAUAAGAACCAGAAGGCGAAUAAU [salish99_ss1_r3_062] (puzzle: Same State 1),,,,26.8,185,211
"GACCGCGAGGAAGGAUAUCGAGCCUUAUUGGCUCGAGAAGGUCCAUAAAGGACAUGAGGAUCACCCAUGUGGUGAGAAGCGGUC [Mat - Same State NG 1 - JL mod - D76] (Eterna round: R96, puzzle: Same State NG 1)",187,1430,1160,,,
"CGAUGUGAGUCAGGAUAUGGGUUAUCACUCCACAUGAGGAUCACCCAUGUAAAGAGGCCAAGGAGCCAGAAGGGACAUACAUCU [Zaorso] (Eterna round: R96, puzzle: Same State NG 2)",1520,14.2,50.8,,,
"AGCUAUUAAUCAGGAUAUGGUGACAUGAGGAUCACCCAUGUAUAGAUGAUUAAAUGUGGUCUAAACUAGAAGGGAUUGCUAACA [SameState NG2 #55] (Eterna round: R96, puzzle: Same State NG 2)",214,247,219,,,
"GUGGUCAGACAUGAGGAUCACCCAUGUGGAAUAAAUAAGGUACAGGAUAUCUAAUAUAGGAUAUAAGAGAAGGGUAGGUUGGUG (Eterna round: R96, puzzle: Same State NG 3)",,55.9,,,,
AGUCCUGAAAAGAAAAUAAAGAGAGAUGUACAUGAGGAUCACCCAUGUCAUGUACAAGUUCUAUGCUCGUCAUAUAA [Sensorship 23 - Jieux - Sensor for hsa-mir-208a] (puzzle: Sensor for hsa-mir-208a),,,,913,113,1430
"UAUUAAUCUGUAGGAUAUGUAGGAUAUGGACGAGGAUCACCCGAGCAGCAUCAGCGCACCAGAGGACAGAAGGACGGCCGGGUG [pwkr ssNG2 2F5 2FMN.24] (Eterna round: R96, puzzle: Same State NG 2)",1670,411,177,,,
AGAAGACAUGAGGAUCACCCAUGUCCCUCAUGCGUAGGAUAUAUAAGAAGAAAGAAAAGGAUAGAAGGACGAAAAG [Default title] (puzzle: Same State 1),,,,97.5,119,194
CGUCCGGCCUGAGCUGGACGGAUGCAUGUACAUGAGGAUCACCCAUGUUCAUGUGCAGGCUUUUUGCUCGUCUUGUG [salish99_mir208a_modof_jandersonlee_002] (puzzle: Sensor for hsa-mir-208a),,,,20.1,9.62,18.1
GUUAAACAUGAGGAUCACCCAUGUAAUAAUAUGGGAGGAUAUCAGAAAUUAUUUAUUAAAUGAGAAGGCCUAAUUG [Mat - Same State 1 - Mod of Eli - D81] (puzzle: Same State 1),,,,53.6,321,150
AGUCCAGCCUGAGCUGGACAAAGGCAUGUACAUGAGGAUCACCCAUGUCAUGUACAAGCUUUUUGCUCGUCUUAAUA [Zipper 49 - 1] (puzzle: Sensor for hsa-mir-208a),,,,177,15,220

Sequence,apparent KD of MS2 coat protein (input ligand: FMN 200 uM) [nM],apparent KD of MS2 coat protein [1] [nM],apparent KD of MS2 coat protein (input ligand: none) [nM],apparent KD of MS2 coat protein [2] [nM],apparent KD of MS2 coat protein [3] [nM],apparent KD of MS2 coat protein [4] [nM]
"GGUAGGUUACUACCAAACUACAUGAGGAUCACCCAUGUGUGGAAGGAUAUGGUACCUAUUUGGUACCAGAAGGUCCAAUUAAUU [Fiskers NG3ss - 5] (Eterna round: R96, puzzle: Same State NG 3)",125,108,122,,,
UCUUGGUUUUUGCUCGUUUUUUGUGUUGAACAUGAGGAUCACCCAUGUAUUGUACGGUCCGGUUUGGUAGUGGUCCG [JMF 16] (puzzle: Sensor for hsa-mir-208a),,,,41,29.4,53.6
"UGUUGUAUUACAGGAUAUCUAUUAUUAUUAUUUAGAGAAGGGUAUUCACAUGAGGAUCACCCAUGUAUAUACGAGGAAGUUGUG [JMF's solution 17] (Eterna round: R96, puzzle: Same State NG 1)",,33.8,,,,
"GUAGCAUACCGAGGAUAUUCAUAUUAACAUGAGGAUCACCCAUGUAUUUAGGCCAAAAGGCCUUGGGAGAAGGCGGAAUGCUAC [Xeonanis - 20 Mod7] (Eterna round: R96, puzzle: Same State NG 2)",17.5,22.3,29.4,,,
UGCGGAUAACAGUAGGAUAUGGUCAACGCCACAUGAGGAUCACCCAUGUCGUACCGGCACCUGGACUAGAAGGACUGCCUCCCGC [Esleberi] (puzzle: Same State 2),,,,11.6,26.4,38
GAGUGAUGGGUUAGUAACUGCUAGGAAGGACAUGAGGAUCACCCAUGUGAGUAACGAGCUUGUGCUCGUCUUAUAAG [JR_SHM208A_Sub021] (puzzle: Sensor for hsa-mir-208a),,,,167,89.4,325
"AAUUAAUUAAUACAUGAGGAUCACCCAUGUAAUUAUUAGAUCAAGGAUAUCAGCUCGAUUAGAGCUGAGAAGGUGAUCACAUGU [SSNG3/18-A2] (Eterna round: R96, puzzle: Same State NG 3)",,282,,,,
"UUGUUUAACGUAGGAUAUCGACCUACAUGAGGAUCACCCAUGUCUUUGUAUAGUUUUUUUUGUUACGAGAAGGACGUUUUGUAU [JR_SSNG2_Sub068] (Eterna round: R96, puzzle: Same State NG 2)",68.6,140,170,,,
"GCAAUAAGGUGAGGAUAUGCAGAGGAUCACCCUGUAGAAGGCAUCAGGUGAGGAUAUGCAGAGGAUCACCCUGUAGAAGGCAUC [pwkr ssNG DX.15] (Eterna round: R96, puzzle: Same State NG 1)",100,123,175,,,
"GCUCGAAUCAGAACCAACAUGAGGAUCACCCAUGUGUGUUGGUAGGAUAUCGUUUCUAAGGGAAACGAGAAGGGCCGAACGAGC [SameState NG3 #7] (Eterna round: R96, puzzle: Same State NG 3)",46.9,49.4,89.1,,,
"UCGGGCGUACUUGCUGACAUGAGGAUCACCCAUGUGUUUGGGAAGGAUAUGGUUCCGUUUCGGUUCCAGAAGGUCCUGGGUGCU [salish99_SSNG3_r04_314] (Eterna round: R96, puzzle: Same State NG 3)",337,254,246,,,
"AAGAAAUCCGCAGGAUAUCCUAAGCCGGACUUAGGAGAAGGGUGGCCACAUGAGGAUCACCCAUGUAAAAGCUGAAUCACAGCC [Vetianeste] (Eterna round: R96, puzzle: Same State NG 1)",554,385,497,,,
"GGAGCCGGCCUAGGAUAUUUCAUUUAAAAACAUGAGGAUCACCCAUGUAGGCCAGAAGGCCUUGGGAAGAAGGAGGUCGGCUCC [Loop Effect - U24,U25] (Eterna round: R96, puzzle: Same State NG 2)",11.2,22.7,44.2,,,
"CUUAACAGAGGAGGAUAUGCAGAGGAUCACCCUGUAGAAGGCCACAGAGGAGGAUAUGCAGAGGAUCACCCUGUAGAAGGCCAC [pwkr ssNG DX.8] (Eterna round: R96, puzzle: Same State NG 1)",622,143,280,,,
"UGUUGUAUUACAGGAUAUCUAUUAGUUUUAUUUAGAGAAGGGUAUUCACAUGAGGAUCACCCAUGUAUAUACGAGGAAGUUGUG [JMF's solution 14] (Eterna round: R96, puzzle: Same State NG 1)",,42.2,,,,

# — the supplement of paper PMC9170038
